The source of these data is PMC10979513 (Progress in neurobiology, 2024).

The assay concerns the target T1, recombinant μ4 C-terminal domain (human, residues 160–453) (human, UniProt O00189 160-453).
T1 sequence (looked up): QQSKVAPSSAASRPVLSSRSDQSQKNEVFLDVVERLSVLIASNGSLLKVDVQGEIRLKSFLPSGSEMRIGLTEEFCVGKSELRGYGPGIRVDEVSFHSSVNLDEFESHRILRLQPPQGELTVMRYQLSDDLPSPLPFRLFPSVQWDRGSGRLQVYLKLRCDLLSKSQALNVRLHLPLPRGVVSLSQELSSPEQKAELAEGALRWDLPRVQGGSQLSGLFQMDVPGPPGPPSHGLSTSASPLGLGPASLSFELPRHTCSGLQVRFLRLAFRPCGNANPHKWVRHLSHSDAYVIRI
As to the kind of experiment: ITC.

B1: ApoER2 peptide YPAAISSFDR (peptide)
peptide: YPAAISSFDR
With B1, the dissociation constant (Kd) worked out at 26.2 µM.
